Laboratory results from patent CN112390879A (UNIV SHANGHAI TECHNOLOGY, dated 2021).

What was measured:
SARS-CoV-2 S蛋白 (野生型) = SARS-CoV-2 S蛋白 (野生型) (SARS-CoV-2, UniProt P0DTC2 14-1273); assay: cell-based or functional assay
SARS-CoV-2 S蛋白的RBD蛋白 [1] = target: T1, SARS-CoV-2 S蛋白的RBD蛋白 (SARS-CoV-2, UniProt P0DTC2 319-541); assay: SPR, Biacore T200, RBD immobilised on CM5 chip, antibody in solution, 1:1 model
T1 construct: domain: RBD

生物素化RBD = 生物素化RBD (SARS-CoV-2, UniProt P0DTC2 319-541)
SARS-CoV-2 S蛋白的RBD蛋白 [2] = target: T1, SARS-CoV-2 S蛋白的RBD蛋白; assay: ELISA, RBD coated at 2 μg/mL, 1F as human IgG1

B1: 抗体1F (antibody, V domains shown)
VH: EVQLVESGPGLVKPSETLSLTCTVSGGSISSSSYYWGWIRQPPGKGLEWIGSIYYRGSTYYNPSLKSRVTISVDTSKNQFSLKLSSVTAADTAVYYCARHVRSAYYYGSGSYRDEGNWFDPWGQGTLVTVSS
VL: QSVLTQPPSVSGAPGQRVTISCTGTRSNIGAGHDVHWYQQLPGTAPKLLIYGNNNRPSGVPDRFSGAKSGTSASLAITGLQAEDEADYYCQSYDRTLTSYVFGTGTKVTVL
B1 was tested, and the “中和SARS-CoV-2活病毒 (Vero-E6细胞, RT-PCR) IC50” value (SARS-CoV-2 S蛋白 (野生型)) was 0.018 µg/mL, the “中和野生型SARS-CoV-2假病毒 (293T-ACE2细胞, 荧光素酶) IC50” value (SARS-CoV-2 S蛋白 (野生型)) was 0.0464 µg/mL and the Kd (SARS-CoV-2 S蛋白的RBD蛋白 [1]) was 0.077 nM. The IC50 (生物素化RBD) was 0.213 µg/mL and the EC50 (SARS-CoV-2 S蛋白的RBD蛋白 [2]) was 0.0016 µg/mL.
